Experimental data as given in US9803013B2, “Biological materials and uses thereof” (BioInvent International AB, priority 2005, dated 2017).

Legend:
A549 = assay: IgG binding to carcinoma cell line, flow cytometry MFI; set-up: species or system human; conditions: A549, Lung carcinoma
Source text: (§1) The antigen distribution of human antibody targeted antigens, mainly for B11, on different carcinoma cell lines was investigated. Cells (MCF-7 and MDA MB 435S breast carcinoma, JAR and JEG-3 chorio-carcinoma, A549 lung carcinoma, TCC-SUP urinary bladder carcinoma, MDA MB 435 melanoma, HPAC, PANC-1 and BxPC-3 pancreatic carcinoma, PC-3 and DU145 prostate carcinoma, LS174 T, CaCo2, and Lovo colorectal carcinoma, and THP-1 monocytic leukaemia cells), were washed in PBS, and resuspended at 4×10^6 cells/ml in Complete Medium (200,000 cells/50 […] sample). […] Cells were incubated with either of the antibodies for 1 hour on ice, washed by resuspension in PBS/BSA 0.5%, centrifuged at 1200 rpm for 5 min, and complete aspiration of the supernatants was undertaken. Cells were incubated with PE-conjugated Goat F(ab′)2 anti-Human IgG (Caltag Laboratories, Cat no: H10104), diluted 1/50 in PBS/BSA 0.5%, for 30 min, on ice. Following resuspension of in 300 μl PBS/BSA 0.5%, cells were analysed for IgG binding using a FACScan instrument.

BxPC-3 = assay: as above; set-up: species or system human; conditions: BxPC-3, Pancreatic carcinoma
Source text: as §1

CaCo2 = assay: as above; set-up: species or system human; conditions: CaCo2, Colon carcinoma
Source text: as §1

DU145 = assay: as above; set-up: species or system human; conditions: DU145, Prostate carcinoma
Source text: as §1

JAR = assay: as above; set-up: species or system human; conditions: Chorio-carcinoma
Source text: as §1

JEG-3 = assay: as above; set-up: species or system human; conditions: JEG-3, Chorio-carcinoma
Source text: as §1

Lovo = assay: as above; set-up: species or system human; conditions: Colon carcinoma
Source text: as §1

MDA MB 435S = assay: as above; set-up: species or system human; conditions: Mammary carcinoma
Source text: as §1

PANC-1 = assay: as above; set-up: species or system human; conditions: PANC-1, Pancreatic carcinoma
Source text: as §1

PC-3 = assay: as above; set-up: species or system human
Source text: as §1

TCC-SUP = assay: as above; set-up: species or system human; conditions: Urinary bladder carcinoma
Source text: as §1

[1] = system: HPAC pancreatic carcinoma; assay: IgG binding to tumour cell line, flow cytometry; set-up: species or system human; conditions: compared to the prostate cancer cells
Source text: (§2) FIG. 6—Binding of B1, B11, C11 IgG, to tumour cell lines of different origin. The antigen distribution of antigens targeted by the B1, B11, and C11 antibodies on different carcinoma cell lines was investigated by flow-cytometry.
as §1

[2] = system: LS174 T colorectal carcinoma; assay: IgG binding to tumour cell line, flow cytometry; set-up: species or system human; conditions: compared to the prostate cancer cells
Source text: as §2, §1

MCF-7 breast carcinoma = assay: IgG binding to tumour cell line, flow cytometry; set-up: species or system human; conditions: MCF-7, compared to the prostate cancer cells
Source text: as §2, §1

[3] = system: THP-1 monocytic leukaemia cells; assay: IgG binding to tumour cell line, flow cytometry; set-up: species or system human
Source text: as §2, §1

[4] = system: mouse, rat, rabbit, and cynomolgus monkey ICAM-1; assay: BI-505 cross-reactivity to ICAM-1 of animal species used for toxicological studies; type: binding; conditions: animals commonly used for toxicological evaluation
Source text: The cross reactivity of BI-505 to mouse, rat, rabbit, and cynomolgus monkey ICAM-1 was investigated using several methods (i.e. immunohistochemistry, flow cytometry, and enzyme-linked immunosorbent assay [ELISA]) and sources of target protein (tissue, ICAM-1 transfected cells, endogenous ICAM-1 expressing cells, and recombinant ICAM-1 protein). Polyclonal anti-mouse ICAM-1, anti-rat ICAM-1, anti-rabbit ICAM-1, and anti-cynomolgus ICAM-1 antibodies were used as positive controls in experiments. Isotype control human IgG1 was used as negative control for BI-505 and species matched polyclonal IgG lacking specificity for ICAM-1 served as negative controls for ICAM-1 specific polyclonal antibodies.

ARH-77 tumors = assay: SCID/ARH-77 subcutaneous xenograft model
Protocol: For subcutaneous grafting, 1-5×10^6 tumor cells (RPMI-8226, NCI-H929, EJM, OPM-2, ARH-77, or Daudi) were subcutaneously injected at a volume of 100 μl into the left flank of anesthetized mice as described in the Supplemental Information. […] Treatment with saline, isotype control IgG, bortezomib, lenalidomide, dexamethasone, or BI-505 started on day 5 (RPMI-8226). Treatment with melphalan started on day 10. BI-505 or isotype IgG mAb was administered i.v. at 2 mg/kg/inj twice weekly for 8 weeks; bortezomib at 1 mg/kg/inj once weekly for 8 weeks; lenalidomide orally at 2 mg/kg/inj for 2 cycles consisting of 5 days of treatment and 2 days of wash out; melphalan i.v. at 3 mg/kg/inj once weekly for 8 weeks; and dexamethasone at 6 mg/kg/inj three times weekly for 2 weeks.
Mice were anaesthetized with a mixture of sevofluran and oxygen prior to myeloma cell inoculation and 1-10×10^6 myeloma cells were then subcutaneously injected in a volume of 100 μl into the left flank. Treatment with antibodies by intraperitoneal injection started either 1 day after cell inoculation (prophylactic model) or when tumors reached approximately 100 mm^3 (established model). Antibodies were administered in 200 μL of PBS. Treatment with PBS only or isotype IgG were used as controls. Macrophages or NK-cells were depleted by i.p. administration of 0.1 ml clodronate liposomes (Clophosome-A, FormuMax, Scientific Inc. Palo Alto, USA) or 20 μl anti-asialo GM1 pCI Ab (CL8955, Cedarlane Laboratories Limited, Canada) respectively, starting one day prior to antibody treatment, followed by administration twice weekly for a total of three weeks, PBS was used as control.
Tumor size was measured using a digital calliper and tumor volumes were calculated according to the formula width^2×length×0.52, as previously described (Cao et al., 1999).
Statistical analyses of tumor growth inhibition relative to control antibody treatment were carried out using Kruskal-Wallis nonparametric ANOVA with Dunn's multiple comparisons test or Mann-Whitney non-parametric analysis, as indicated in the figure legends.

[5] = system: Daudi B cell lymphoma xenografts; assay: SCID/Daudi B cell lymphoma subcutaneous xenograft model; conditions: one day following tumor cell injection or established tumors
[6] = tumors established for 12 days before start of antibody treatment

B1: B11: fully human IgG1 antibody specific for ICAM-1; VH and VL sequences of FIG. 10 (SEQ ID NOs. 6 and 8) (antibody, listed as Homo sapiens, V domains shown)
VH: EVQLLESGGGLVQPGGSLRLSCAASGFTFSNAWMSWVRQAPGKGLEWVAFIWYDGSNKYYADSVKGRFTISRDNSKNTLYLQMNSLRAEDTAVYYCARYSGWYFDYWGQGTLVTVSS
VL: QSVLTQPPSASGTPGQRVTISCTGSSSNIGAGYDVHWYQQLPGTAPKLLIYDNNNRPSGVPDRFSGSKSGTSASLAISGLRSEDEADYYCQSYDSSLSAWLFGGGTKLTVLG
- MFI (A549): 800
- MFI (BxPC-3): 2000
- MFI (CaCo2): 800
- MFI (DU145): 2200
- MFI (JAR): 2000
- MFI (JEG-3): 1600
- MFI (Lovo): 1600
- MFI (MDA MB 435S): 800
- MFI (PANC-1): 3800
- MFI (PC-3; PC-3, Prostate carcinoma): 1500
- binding (PC-3; PC-3 prostate carcinoma cells): strong binding
- MFI (TCC-SUP): 3200
- binding / ICAM-1 expression [1]: lower intensity
- binding / ICAM-1 expression [2]: lower intensity
- binding / ICAM-1 expression (MCF-7 breast carcinoma): lower intensity
- binding / ICAM-1 expression [3]: did not express ICAM-1
- cross-reactivity with animal ICAM-1 [4]: does not, however, cross-react
- antitumor activity (ARH-77 tumors; dose-titration, dose of 0.2 mg/kg): near maximal
- in vivo antitumor activity of Fc-variants, order (ARH-77 tumors; established ARH-77 tumors): IgG1 N297Q<IgG4<IgG1
- tumor macrophage infiltration (ARH-77 tumors; established ARH-77 tumors, F4/80+ immunohistochemistry): significantly increased tumor macrophage infiltration
- tumor NK cell content (ARH-77 tumors; established ARH-77 tumors, immunohistochemistry): decreased tumor NK cell content
- survival (ARH-77 tumors; prophylactic, 0.2 mg/kg, compared to 20 mg/kg rituximab): equally efficacious
- injected mice in which tumor growth was prevented (ARH-77 tumors; prophylactic, 20 mg/kg twice-weekly from 1 day after tumor cell inoculation): 9 out of 10
- animal survival (ARH-77 tumors; [6]): prolonged animal survival
- tumor growth (ARH-77 tumors; [6]): significantly reduced tumor growth
- survival [5]: prolonged survival
- tumor growth [5]: significantly prevented tumor growth
